The text below walks through data of publication doi:10.1101/2024.12.20.629688, “The PH domain in the ArfGAP ASAP1 drives catalytic activation through an unprecedented allosteric mechanism” (bioRxiv, 2024).

Assay [1] addresses T1, ASAP1 ZA domain (Arf GAP and ankyrin repeat domains), [431–724]ASAP1 (UniProt Q9QWY8 431-724).
T1 construct: Isotopically labelled for the PRE experiment; also called ^ΔPHZA; isolated ZA domain; source: recombinant; expression not described
T1 sequence (looked up): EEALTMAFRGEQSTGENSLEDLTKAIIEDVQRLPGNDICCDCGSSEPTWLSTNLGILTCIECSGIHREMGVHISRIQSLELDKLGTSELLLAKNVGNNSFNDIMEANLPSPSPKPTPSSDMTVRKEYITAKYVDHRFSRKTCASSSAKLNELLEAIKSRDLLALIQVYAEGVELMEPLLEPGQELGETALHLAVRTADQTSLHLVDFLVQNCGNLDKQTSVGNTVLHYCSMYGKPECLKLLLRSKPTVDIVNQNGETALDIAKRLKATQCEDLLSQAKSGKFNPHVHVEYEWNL
In words: NMR paramagnetic relaxation enhancement; Cys159-MTSL myrArf1 (non-hydrolysable GTP analog) alone or in complex with wt PH on nanodiscs, 100 μM, with 100 μM isolated isotopically labelled ZA domain. The note with it: both partners purified.

For assay [2], the target named is T2, myristoylated human Arf1, GTP-bound form, anchored on membrane (nanodiscs or LUVs) (human, UniProt P84077 1-181, N-myristoylated). Briefly: cell-based or functional assay.
Assay [3] addresses T2, myristoylated human Arf1, GTP-bound …. In words: other fluorescence titration + other: inhibition of the GAP activity of wt PZA; proxies for affinity: (1) rate of mant-GTP dissociation from myrArf1 (Trp to mant FRET) against PH concentration, LUVs with 5 mol% PI(4,5)P2, excess GTP; (2) IC50 of PH domain on GTP hydrolysis in 3 min with myrArf1·GTP below the Km and 1 nM wt PZA. The note with it: both partners purified.

T2 sequence (P84077 whole entry, the tested form may be a part): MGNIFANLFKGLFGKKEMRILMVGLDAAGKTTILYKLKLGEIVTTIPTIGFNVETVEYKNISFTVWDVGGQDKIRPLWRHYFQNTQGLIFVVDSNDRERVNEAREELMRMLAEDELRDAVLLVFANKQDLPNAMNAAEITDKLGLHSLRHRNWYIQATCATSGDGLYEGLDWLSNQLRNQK

B1: Cys159-MTSL tagged myrArf1 (natural protein)
chain: not shown
modifications: N-myristoylated; MTSL spin label on the native Cys159
notes: human Arf1, UniProt P84077; source: E. coli BL21 Star (DE3), co-expressed with yeast NMT, purified; spin-labelled on nanodiscs
Usually Kd stands for the equilibrium constant for the complex coming apart. Regarding B1, the equilibrium dissociation constant (Kd) in assay [1] lay within 100 to 1000 µM.

B2: ΔN14 ASAP1 PH domain, [339–451]ASAP1 (domain or fragment, UniProt Q9QWY8 339-451, looked up)
chain: GSEKKGFLLKKSDGIRKVWQRRKCAVKNGILTISHATSNRQPAKLNLLTCQVKPNAEDKKSFDLISHNRTYHFQAEDEQDYIAWISVLTNSKEEALTMAFRGEQSTGENSLED
notes: ASAP1 PH domain without residues 325-338 (the first 14 residues of the wt PH construct), residues 339-451; also called ^ΔN14PH
For B2, the ““in trans” effect of the PH domain on GTP hydrolysis on myrArf1 by the isolated ZA domain (LUVs), relative to wt PH” value in assay [2] was 0.01 fold of wt PH. In assay [3], the “affinity relative to wt PH” value was ~0.5 fold of wt PH.
